{
  "source": "paper PMC11336141",
  "target": "human somatostatin receptor 2, Tango construct (human) (UniProt P30874)",
  "sequence (P30874 whole entry)": "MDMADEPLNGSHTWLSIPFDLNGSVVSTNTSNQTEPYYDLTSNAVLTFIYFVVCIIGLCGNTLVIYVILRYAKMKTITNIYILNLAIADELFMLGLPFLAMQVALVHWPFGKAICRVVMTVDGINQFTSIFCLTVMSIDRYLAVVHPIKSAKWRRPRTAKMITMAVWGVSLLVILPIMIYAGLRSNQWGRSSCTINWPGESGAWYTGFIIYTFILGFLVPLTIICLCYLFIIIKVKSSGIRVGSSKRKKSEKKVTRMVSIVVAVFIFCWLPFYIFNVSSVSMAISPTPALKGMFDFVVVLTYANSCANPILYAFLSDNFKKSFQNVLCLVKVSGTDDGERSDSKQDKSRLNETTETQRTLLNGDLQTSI",
  "data": [
    {"substance": "octreotide (peptide)", "values": [
      {"measurement": "EC50, PRESTO-Tango β-arrestin recruitment assay", "value": 0.9, "unit": "nM"}
    ]}
  ]
}
